One data set concerns CC(=O)C(=O)O. Nature of the data set: purified protein. As to conditions: NADH.
In data set [1] the target is T1, rat lactate dehydrogenase A (rLDHA) (Rattus norvegicus, UniProt P04642).
T1 construct: gene Ldha; amino acids 1–332 of full-length wild type, untagged, biotinylated
In words: SPR (BIAcore T200), steady-state affinity; kinetic fit gives Kd […]. Type of data set: binding. For orientation: Surface plasmon resonance follows binding to a sensor surface in real time, without labels.

Experimental findings from publication PMC4696747 (PLoS ONE, 2015) are described below.

In the case of “rat lactate dehydrogenase A (rLDHA) (Rattus norvegicus)”, the Km (as a rule, the substrate concentration at which the rate is half of its maximum) in the data set on CC(=O)C(=O)O came to 530 ± 80 µM.

For `NC(=O)C1=CN([C@@H]2O[C@H](COP(=O)(O)OP(=O)(O)OC[C@H]3O[C@@H](n4cnc5c(N)ncnc54)[C@H](O)[C@@H]3O)[C@@H](O)[C@H]2O)C=CC1` [NADH], the Kd (usually the equilibrium constant for the complex coming apart) in data set [1] stood at 6.4 ± 0.3 µM.
